The numbers were not newly measured in patent US7235522B2, “Use of microparticles having a protein and an antibody adsorbed thereon for preparing a pharmaceutical composition for intranasal administration” (priority 1997, dated 2007), which cites them from elsewhere.

The conditions of the data set: in vivo.

As for insulin [insulin (51 AA)], the “absorption of proteins administered by nasal route” value is recorded as “almost zero”.
